# Experimental data from patent US20110289632.
# B1: ShMKS1 (methylketone synthase 1 from Solanum habrochaites f glabratum), recombinant, His-tagged (protein)
# chain: MEKSMSPFVKKHFVLVHTAFHGAWCWYKIVALMRSSGHNVTALDLGASGINPKQALQIPNFSDYLSPLMEFMASLPANEKIILVGHALGGLAISKAMETFPEKISVAVFLSGLMPGPNIDATTVCTKAGSAVLGQLDNCVTYENGPTNPPTTLIAGPKFLATNVYHLSPIEDLALATALVRPLYLYLAEDISKEVVLSSKRYGSVKRVFIVATENDALKKEFLKLMIEKNPPDEVKEIEGSDHVTMMSKPQQLFTTLLSIANKYK
# Target: 3-ketomyristoyl-ACP (enzymatically prepared from ShACP)
protein,measurement,value
B1,"amount of 2-tridecanone formed (in vitro thioesterase activity assay, direct hexane extraction, GC-MS)","slightly higher, but not significantly so (t test, p=0.062, α=0.05), than the amount found in the buffer-incubated sample treated with acid and heat"
